The chains are these.
B1: HER3-ECD^I-II (residues 20-329), recombinant domains I and II of HER3 expressed in Drosophila S2 cells (receptor, not shown: small tags and cut ends)
chain: SEVGNSQAVCPGTLNGLSVTGDAENQYQTLYKLYERCEVVMGNLEIVLTGHNADLSFLQWIREVTGYVLVAMNEFSTLPLPNLRVVRGTQVYDGKFAIFVMLNYNTNSSHALRQLRLTQLTEILSGGVYIEKNDKLCHMDTIDWRDIVRDRDAEIVVKDNGRSCPPCHEVCKGRCWGPGSEDCQTLTKTICAPQCNGHCFGPNPNQCCHDECAGGCSGPQDTDCFACRHFNDSGACVPRCPQPLVYNKLTFQLEPNPHTKYQYGGVCVASCPHNFVVDQTSCVRACPPDKMEVDKNGLKMCEPCGGLCPK
notes: Monomer by light scattering and ultracentrifugation; The N-terminal Drosophila leader comes from the vector; the protein is secreted; also called HER3^I-II; H3 I-II
B2: HER3^I-II V110A (receptor, not shown: small tags and cut ends)
chain: SEVGNSQAVCPGTLNGLSVTGDAENQYQTLYKLYERCEVVMGNLEIVLTGHNADLSFLQWIREVTGYVLVAMNEFSTLPLPNLRVVRGTQAYDGKFAIFVMLNYNTNSSHALRQLRLTQLTEILSGGVYIEKNDKLCHMDTIDWRDIVRDRDAEIVVKDNGRSCPPCHEVCKGRCWGPGSEDCQTLTKTICAPQCNGHCFGPNPNQCCHDECAGGCSGPQDTDCFACRHFNDSGACVPRCPQPLVYNKLTFQLEPNPHTKYQYGGVCVASCPHNFVVDQTSCVRACPPDKMEVDKNGLKMCEPCGGLCPK
notes: also called H3^I-II V110A
B3: trx-hrg, thioredoxin-heregulin fusion with a C-terminal His and S-tag (ligand)
chain: SHLVKCAEKEKTFCVNGGECFMVKDLSNPSRYLCKCPNEFTGDRCQNYVMASFYKHLGIEF
notes: Made as in Landgraf et al. 1998; also called S-tagged hrg; immobilized hrg; not shown: thioredoxin; C-terminal His tag and S-tag
B4: HER3^I-II N44A (receptor, not shown: small tags and cut ends)
chain: SEVGNSQAVCPGTLNGLSVTGDAEAQYQTLYKLYERCEVVMGNLEIVLTGHNADLSFLQWIREVTGYVLVAMNEFSTLPLPNLRVVRGTQVYDGKFAIFVMLNYNTNSSHALRQLRLTQLTEILSGGVYIEKNDKLCHMDTIDWRDIVRDRDAEIVVKDNGRSCPPCHEVCKGRCWGPGSEDCQTLTKTICAPQCNGHCFGPNPNQCCHDECAGGCSGPQDTDCFACRHFNDSGACVPRCPQPLVYNKLTFQLEPNPHTKYQYGGVCVASCPHNFVVDQTSCVRACPPDKMEVDKNGLKMCEPCGGLCPK
notes: also called H3 I-II Mutant N44A

Test [1] deals with B3. The test can be described thus: SPR, trx-hrg immobilized (68 nM) compared with HER3-ECD^I-IV (2.3 nM). As for the experimental part:
(§1) Trx-hrg (13 μM) in MES buffer (100 mM pH 6.0) was immobilized on a BIAcore CM5 chip using standard N-hydroxysuccinimide/1-ethyl-3-(3-dimethylaminopropyl)carbodiimide amine-coupling chemistry. The surface of the chip was blocked with ethanolamine and could be regenerated with 5.0 M NaCl and washes with running buffer (PBS+surfactant). HER3-ECD^I-II (filtered through a 0.1-μm filter unit (Millipore, Bedford, Mass.)) in running buffer was applied to the chip at various concentrations (in triplicate) to determine the dissociation constant. Data were analyzed with the BIAevaluation software. Competition experiments were carried out using hrg at an equimolar concentration to HER3-ECD^I-II.
(§2) To further confirm that HER3-ECD^I-II binds hrg, we analyzed the interaction by SPR (BIAcore). Trx-hrg fusion protein was immobilized on a BIAcore chip for these measurements. […] This interaction could be inhibited by stoichiometric concentrations of hrg.
For orientation: In SPR one partner is held on a chip, and binding of the other changes the refractive index at the surface.

For test [2], the target named is B3. Put plainly: SPR (BIAcore), immobilized trx-hrg.
Test [3] has as its target B3. The test can be described thus: SPR (BIAcore), immobilized trx-hrg.
For a further test, the target named is T1, HER3^I-II K51A (human, UniProt P21860 20-329).
T1 construct: also called H3^I-II K51A
Put plainly: SPR (BIAcore), immobilized trx-hrg.

The target in a further test is HER3^I-II V66A (human, UniProt P21860 20-329). Put plainly: SPR (BIAcore), immobilized trx-hrg.
For the test “HER3^I-II V110A”, the target named is B2. Put plainly: SPR (BIAcore), immobilized trx-hrg.
For the next test, the target named is T2, HER3^I-II E43A (human, UniProt P21860 20-329).
T2 construct: also called H3 I-II Mutant E43A
T2 sequence (P21860 20-329 E43A): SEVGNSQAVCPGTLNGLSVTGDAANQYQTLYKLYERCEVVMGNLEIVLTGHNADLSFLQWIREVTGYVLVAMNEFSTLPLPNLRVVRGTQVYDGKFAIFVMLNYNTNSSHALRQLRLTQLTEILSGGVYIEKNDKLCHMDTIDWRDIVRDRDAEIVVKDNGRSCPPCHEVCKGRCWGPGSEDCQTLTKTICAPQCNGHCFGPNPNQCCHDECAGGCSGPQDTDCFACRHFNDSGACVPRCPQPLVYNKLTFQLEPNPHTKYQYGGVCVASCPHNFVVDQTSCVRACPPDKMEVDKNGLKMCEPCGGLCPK
Put plainly: SPR (BIAcore), immobilized trx-hrg.

The test “HER3^I-II N44A” addresses B4. The test can be described thus: SPR (BIAcore), immobilized trx-hrg.
Test [4] addresses T3, HER3^I-IV E64A (human, UniProt P21860 20-643).
T3 construct: also called H3^I-IV E64A
The test can be described thus: pull-down on trx-hrg-coupled S-protein agarose. As for the experimental part: (§3) FIG. 12. […] HER3^I-IV and the HER3^I-IV mutants were analyzed on a native Phast gel (10-15%) in the absence (−) and presence (+) of equimolar hrg. The HER3^{I-IV E64A} was also analyzed in the absence (lane 2) and presence (lane 4) of hrg. Formation of a hrg-HER3^I-IV complex is observed with HER3^I-IV, but not with […], B, HER3^I-IV and HER3^{I-IV E64A} were analyzed in a “pull down assay” in which S-tagged hrg was immobilized on S-protein resin (lanes 4-9) and HER3^I-IV could be specifically eluted with 1 μM hrg and detergent (lane 6 and 8), but HER3^{I-IV E64A} could not be eluted with PBS or 1 μM hrg (lanes 5 and 7). A small amount of HER3^{I-IV E64A} could be eluted with detergent (lane 9) which was probably due to some binding or non-specific interaction.
To confirm that HER3^I-IVE64A has decreased binding affinity for hrg, we used a “pull down” assay in which we measured the HER3^I-IV and HER3^I-IVE64A that could be dissociated from immobilized thioredoxin-heregulin (trx-hrg) by the addition of hrg. Using trx-hrg coupled S-protein agarose, HER3^I-IV was eluted with hrg and detergent (FIG. 12B, lanes 6 and 8), but not with PBS (FIG. 12B, lane 4). No HER3^{I-IV E64A} could be recovered by elution with PBS, hrg or detergent (FIG. 12B, lanes 5, 7 and 9).

Test [5] addresses B1. Put plainly: SPR (BIAcore), trx-hrg immobilized, HER3-ECD^I-II in solution. As for the experimental part: as §1, §2
Test [6] concerns the target T3, HER3^I-IV E64A. Put plainly: native gel mobility shift. As for the experimental part: as §3
To determine the effects of cleavage of HER3^I-IV on its ability to bind hrg, a gel mobility shift assay was performed. […] (FIG. 12A).

Test [7] deals with T4, HER3-ECD^I-IV, soluble extracellular domains of recombinant HER3 purified from Chinese hamster ovary cells (human, UniProt P21860 20-643).
T4 construct: also called nonproteolyzed HER3-ECD^I-IV
Put plainly: method not given; compared with the Kd of HER3-ECD^I-II (68 nM); form of hrg not stated.

Test [8] concerns the target HER3^FL E64A (residues 20-1342 with a mutation of E64A), transiently expressed on COS 7 cells (human, UniProt P21860 20-1342). Put plainly: specific binding of radio-iodinated hrg to COS 7 cells transiently expressing the HER3 construct.
In test [9] the target is HER3^II-CTD (residues 184-1342), transiently expressed on COS 7 cells (human, UniProt P21860 184-1342). The description is as above.
HER3^II-CTD (residues 184-1342), transiently expressed on COS 7 cells, sequence (P21860 184-1342 E560G/E1064G): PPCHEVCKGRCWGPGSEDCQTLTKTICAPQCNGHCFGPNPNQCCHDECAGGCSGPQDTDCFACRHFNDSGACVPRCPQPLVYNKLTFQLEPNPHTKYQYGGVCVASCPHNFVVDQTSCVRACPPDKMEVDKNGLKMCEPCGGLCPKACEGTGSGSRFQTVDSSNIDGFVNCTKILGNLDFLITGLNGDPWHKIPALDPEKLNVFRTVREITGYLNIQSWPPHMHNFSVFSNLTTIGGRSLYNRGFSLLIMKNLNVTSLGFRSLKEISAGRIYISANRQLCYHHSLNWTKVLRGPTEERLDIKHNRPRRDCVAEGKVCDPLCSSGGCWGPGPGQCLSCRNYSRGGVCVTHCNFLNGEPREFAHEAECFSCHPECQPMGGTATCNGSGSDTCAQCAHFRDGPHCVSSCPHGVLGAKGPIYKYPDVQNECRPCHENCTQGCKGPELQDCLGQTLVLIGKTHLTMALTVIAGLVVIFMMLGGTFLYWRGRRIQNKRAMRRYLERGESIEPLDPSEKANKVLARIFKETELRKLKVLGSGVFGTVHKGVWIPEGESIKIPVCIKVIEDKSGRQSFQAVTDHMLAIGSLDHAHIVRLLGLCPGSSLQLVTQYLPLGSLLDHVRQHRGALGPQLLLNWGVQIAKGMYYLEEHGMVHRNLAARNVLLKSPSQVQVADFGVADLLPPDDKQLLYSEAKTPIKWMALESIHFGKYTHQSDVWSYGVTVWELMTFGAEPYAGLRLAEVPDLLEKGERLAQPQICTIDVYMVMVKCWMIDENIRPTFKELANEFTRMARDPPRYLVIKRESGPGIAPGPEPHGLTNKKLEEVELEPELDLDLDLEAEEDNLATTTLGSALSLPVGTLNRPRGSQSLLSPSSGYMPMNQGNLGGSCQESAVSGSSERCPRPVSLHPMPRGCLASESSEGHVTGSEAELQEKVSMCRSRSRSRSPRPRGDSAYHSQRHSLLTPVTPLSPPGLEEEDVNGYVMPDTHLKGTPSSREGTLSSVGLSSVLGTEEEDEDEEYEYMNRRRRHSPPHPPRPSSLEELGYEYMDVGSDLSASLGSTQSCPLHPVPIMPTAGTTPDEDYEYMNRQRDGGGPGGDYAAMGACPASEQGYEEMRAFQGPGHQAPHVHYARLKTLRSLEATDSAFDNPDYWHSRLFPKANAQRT
The target of test [10] is T4, HER3-ECD^I-IV, soluble extracellular …. The test can be described thus: method not given; given as the reference for the SPR value of HER3-ECD^I-II (68 nM, trx-hrg immobilized); form of hrg not stated.

Like-named read-outs stand apart in the source and are kept apart here.

What is called Kd is the constant that tells how readily two partners part at equilibrium. As a reminder, the koff is the rate constant with which the complex falls apart. The kon is a measure of how fast the partners come together.

For the molecule B1, the “fold lower binding affinity than HER3-ECD^I-IV” value in [1] was 30 fold.
As for B2, the entries for the “fold increase in binding affinity (against HER3^I-II)” value in test [2] and in test [3] were 4 fold and 5 fold, respectively.
In the case of B3, the Kd came to 63 nM with HER3^I-II K51A; 60.5 nM in the test with HER3^I-II V66A; 15.4 nM with HER3^I-II V110A; 63 nM in the test with HER3^I-II E43A; 95.5 nM with HER3^I-II N44A; 68 nM in test [5]. Besides, the binding result with HER3^I-IV E64A [4] is listed as “no binding”. In test [5], the off-rate constant (koff) is 0.00727 s⁻¹. For the same molecule, the kon in test [5] was determined as 107000 M⁻¹ s⁻¹.
With B4, the “fold decrease in binding affinity (against HER3^I-II)” value in [2] is 1.5 fold.

B5: hrg, 60-residue EGF-like domain of human heregulin beta1 (residues 177-237) (ligand)
chain: SHLVKCAEKEKTFCVNGGECFMVKDLSNPSRYLCKCPNEFTGDRCQNYVMASFYKHLGIEF
notes: also called I^25 hrg
Regarding B5, the binding result with HER3^I-IV E64A [6] is “no binding (tested: 1:1 molar ratio)”; in test [8], “no binding”; in test [9] it was “no binding”. Also, the figures for the Kd in [7] and in test [10] were 1.9 nM and 2.3 nM, respectively.

The values are drawn from patent publication US20060177907A1 (University of California, published 2006).
